The record followed here is patent US20240316157A1, “PHARMACEUTICAL COMPOSITION OF PCSK9 INHIBITOR AND GLP-1 RECEPTOR AGONIST” (Gan & Lee Pharmaceuticals Co., Ltd., priority 2021, published 2024).

Data set [1] concerns wild-type hamsters. As to the kind of experiment: Effect of the combination of Alirocumab and semaglutide on blood glucose in hamsters. Type of data set: in vivo, hamster. The following applies: for Blood glucose (relative concentration): 7th day after dosing relative to baseline, s.c. once every two days, high-fat high-sugar feed, x±s; for Blood glucose decline rate E value: 7th day, versus control group, recorded as 0 if not significantly different from control. As for the experimental part: The experimental animals in this Example were wild-type hamsters, and the hamsters were grouped and administered according to the following standard: • 1) Control group: injection of excipient samples, subcutaneous injection (administration of […]), once every two days; • 2) Alirocumab group: injection of Alirocumab sample (Alirocumab 10 mg/kg), subcutaneous injection, once every two days; • 3) Semaglutide group: injection of semaglutide sample (semaglutide 0.12 mg/kg), subcutaneous injection, once every two days; • 4) Alirocumab+semaglutide group: injection of Alirocumab (Alirocumab 10 mg/kg) and semaglutide (semaglutide 0.12 mg/kg) by subcutaneous injection, the frequency of administration was once every two days.
On the first day of the experiment, each group of wild-type hamsters was given high-fat and high-sugar feed (containing 10% lard, 10% cholesterol, and 60% fructose) and injected with drugs according to the above dosing regimen for each group, and blood was collected from the inner canthus vein of the hamster on the day before administrating and 7th day after dosing, plasma was anticoagulated with sodium heparin, and plasma was obtained by centrifugation of the whole blood at 4° C. for 10 min at 4000 rpm, and the blood glucose level was detected by glucose assay kit (Biosino Bio-Technology and Science Incorporation).
The obtained blood glucose data were normalized according to the following method: taking the blood glucose of each group before the administration of the drug as the baseline, the relative concentration of the corresponding time point obtained by comparing the blood glucose at the monitoring point after the administration of the drug to the baseline glucose, the relative concentration of blood glucose was expressed as x±s, and the decline rate of the blood glucose of each administration group was calculated by using the analysis of variance using the GraphPad Prism software, in which x means the average value of data, and s denotes the standard deviation.
Decline rate of blood glucose: E=[(relative blood glucose of […])/relative blood glucose of control group]×100%
Note: If there is no significant difference between the relative blood glucose value of the administered group and the relative blood glucose of the control group, the value of E is recorded as 0.
Calculation method of synergistic effect: the determination was made by using Zhengjun Jin's Q value, in which the Q value was obtained by the following formula: Q=Ea+b/(Ea+Eb−Ea×Eb); wherein Ea+b indicated the decline rate of detection indexes of the combination and mixed administration of the two drugs, and Ea, Eb indicated the decline rate of detection indexes of the two drugs used alone. If Q is between 0.85 and 1.15, it means that the two drugs have an additive effect; Q>1.15, the two drugs have a synergistic effect; Q<0.85, the two drugs have an antagonistic effect.

The test system of data set [2] is wild-type hamsters. As to the kind of experiment: Effect of the combination of Evolocumab and Compound 5 on blood glucose in hamsters. The data set is classed as in vivo, hamster.
Protocol: The experimental animals in this Example were wild-type hamsters, and the hamsters were grouped and administered according to the following standard: • 1) Control group: subcutaneous injection of excipient samples, subcutaneous injection (administration of 2 μL/kg), once every two days; • 2) Evolocumab group: injection of Evolocumab samples (Evolocumab 30 mg/kg) by subcutaneous injection, once every two days; • 3) Compound 5 group: injection of compound 5 sample (compound 5: 0.12 mg/kg), using subcutaneous injection, once every two days; • 4) Evolocumab+Compound 5 group: injection of a pharmaceutical combinations containing Evolocumab and Compound 5 (Evolocumab 30 mg/kg, Compound 5: 0.12 mg/kg) by subcutaneous injection once every two days.
On the first day of the experiment, each group of wild-type hamsters was given high-fat and high-sugar feed (containing 10% lard, 10% cholesterol, and 60% fructose) and injected with samples according to the dosing regimen described above for each group, and blood was collected from the inner canthus vein of the hamsters on the day before administration and 7th day after administration, and plasma was anticoagulated with heparin sodium, and plasma was obtained by centrifugation for 10 min at 4° C. at 4,000 rpm, and the blood glucose level was measured by glucose assay kit (Biosino Bio-Technology and Science Incorporation.) […]
The test system of data set [3] is transgenic mice overexpressing human PCSK9. Kind of data set: Effect of Evolocumab in combination with Compound 5 on blood lipid (LDL-C) in hyperlipidemic mice. The data set is classed as in vivo, mouse. The following applies: conclusion in words from Table 3. As for the experimental part:
In this example, experimental animals were transgenic mice overexpressing human PCSK9 (4 weeks old). After being fed a high-fat diet for 37 days, their fasting lipid levels were measured.
On the 5th day after dosing, the lipid levels of the mice were measured. The lipid measurement method was as follows: Blood was collected from the mice via the inner canthus vein, plasma was obtained by centrifuging whole blood at 4° C. and 4000 rpm for 10 minutes with sodium heparin as an anticoagulant. LDL-C levels were measured using an LDL-C assay kit (Nanjing Jiancheng Bioengineering Institute).
The blood lipid data obtained were normalized using the following method: The blood lipid of each group before administration was taken as baseline, and the relative concentration of lipid at the corresponding time point obtained by comparing the blood lipid at the monitoring points after administration with that before administration. The relative concentration of blood lipid is represented as ‘x±s’, with ‘x’ representing the mean value of the data and ‘s’ representing the standard deviation. Variance analysis was conducted using GraphPad Prism software.

Data set [4] relates to humanized mice overexpressing PCSK9 (B6-hPCSK9). As to the kind of experiment: Animal efficacy of Evolocumab in combination with Compound 5: body weight, fasting blood glucose, LDL-C. Type of data set: in vivo, mouse.
Description: In this example, humanized mice overexpressing PCSK9 (B6-hPCSK9) (males, 6 weeks old) were used, totaling 30 mice. These humanized mice were divided into six groups: K0-K5, with 5 mice per group. K0 served as the NC control group (fed a high-fat feed throughout the experiment), while K1-K5 were experimental groups. After a 1-week adaptation period with growth and breeding feed (Keao Xieli Feed), they were fed a high-fat diet for one month (Xietong Pharmaceutical Bio-engineering), and dosing was initiated after the high-fat diet feeding.
The dosing for each experimental group was done via subcutaneous injection once in total, with the dose administrated calculated based on the dose of Evolocumab. […] If the dose was doubled (2×), the dose was doubled accordingly.
Throughout the experiment, various indicators were monitored with the following frequencies: for weight monitoring, the weight was measured and recorded before dosing and then every other day after blood collection, this was performed a total of 3 times. […] Blood glucose levels were measured using a glucose assay kit (provided by Biosino Bio-Technology and Science Inc). […] LDL-C in the serum samples was measured using an LDL-C test kit (Nanjing Jiacheng Bioengineering Institute).
The nature of data set [5]: Reduced CE-SDS light and heavy chain ratio of Evolocumab (storage stability). The data set is classed as physicochemical. To be noted: 4° C., reference of one-month study of Suspension Formulation-2. From the text:
The Acidic and Alkaline Peak ratio of Evolocumab monoclonal antibody in Suspension Formulation-2 falls within the quality standard range of originator product. (main peak≥51%, alkaline peak≤16%). • (4) The results of reduced CE-SDS testing for the light-heavy chain ratio of Evolocumab monoclonal antibody in Suspension Formulation-2 are presented in Table 22: […]

Data set [6] in a line: CEX-HPLC acid-to-base peak ratio of Evolocumab (storage stability). Type of data set: physicochemical. To be noted: 4° C., reference of one-month study of Suspension Formulation-2.

In the case of Alirocumab, in data set [1], the “Blood glucose (relative concentration)” value was 0.71 ± 0.049 and the “Blood glucose decline rate E value” turned out to be 0%. The hypoglycemic function entry in data set [1] (conclusion in words from Table 1) is “did not show a hypoglycemic function”.

For the molecule Semaglutide, in data set [1], the “Blood glucose (relative concentration)” value was 0.61 ± 0.062 and the “Blood glucose decline rate E value” was found to be 14.1%.

B1: Evolocumab (antibody, chains of the INN, looked up, V domains shown)
VH: EVQLVQSGAEVKKPGASVKVSCKASGYTLTSYGISWVRQAPGQGLEWMGWVSFYNGNTNYAQKLQGRGTMTTDPSTSTAYMELRSLRSDDTAVYYCARGYGMDVWGQGTTVTVSS
VL: ESALTQPASVSGSPGQSITISCTGTSSDVGGYNSVSWYQQHPGKAPKLMIYEVSNRPSGVSNRFSGSKSGNTASLTISGLQAEDEADYYCNSYTSTSMVFGGGTKLTVL
notes: PCSK9 antibody; source is Repatha®, commercially available from Amgen
On to B1, for which the “Blood glucose decline rate E value” in data set [2] (7th day, versus control group, recorded as 0 if not significantly different from control) is 0%. Also, in data set [2] (conclusion in words from Table 2), the hypoglycemic function result is given as “did not show a hypoglycemic function”. For the same molecule, the lipid-lowering effect entry in data set [3] is reported as “lipid-lowering effects”. Besides, the body weight entry in data set [4] (single s.c. 1× dose (K2 530 ug/kg Compound 5; K3, K4 12.3 mg/kg Evolocumab), FIGS. 1-2) was “did not experience weight loss”. In addition, in data set [4] (single s.c. 1× dose (K3, K4 12.3 mg/kg Evolocumab), FIG. 5), the LDL-C entry is “ability to lower LDL-C levels was consistent”.

B2: Laboratory-Purified Evolocumab: Commercially available Evolocumab (Repatha®) purified in the laboratory, 140 mg/ml (antibody, chains of the INN, looked up, V domains shown)
VH: EVQLVQSGAEVKKPGASVKVSCKASGYTLTSYGISWVRQAPGQGLEWMGWVSFYNGNTNYAQKLQGRGTMTTDPSTSTAYMELRSLRSDDTAVYYCARGYGMDVWGQGTTVTVSS
VL: ESALTQPASVSGSPGQSITISCTGTSSDVGGYNSVSWYQQHPGKAPKLMIYEVSNRPSGVSNRFSGSKSGNTASLTISGLQAEDEADYYCNSYTSTSMVFGGGTKLTVL
In the case of B2, the “Pre-LC + LC + HC(%)” value in data set [5] is on record as 98.79%. Further, the “Alkaline Peak (%)” value in data set [6] came out at 10.569%.
